Test results reported in patent US11946041B2, “Modification of polypeptides” (BicycleRD Limited, priority 2017, dated 2024).
Each block holds one sequence with its values, some of them ahead of it.

Assays:
CCR4 [1] = molecular target: T1, CCR4 (Homo sapiens, UniProt P51679); assay: PathHunter eXpress CCR4 CHO-K1 β-Arrestin GPCR Assay, antagonist format with CCL22; assay type: cell-based
T1 construct: host or cells: CHO-K1
T1 sequence (P51679 1-360): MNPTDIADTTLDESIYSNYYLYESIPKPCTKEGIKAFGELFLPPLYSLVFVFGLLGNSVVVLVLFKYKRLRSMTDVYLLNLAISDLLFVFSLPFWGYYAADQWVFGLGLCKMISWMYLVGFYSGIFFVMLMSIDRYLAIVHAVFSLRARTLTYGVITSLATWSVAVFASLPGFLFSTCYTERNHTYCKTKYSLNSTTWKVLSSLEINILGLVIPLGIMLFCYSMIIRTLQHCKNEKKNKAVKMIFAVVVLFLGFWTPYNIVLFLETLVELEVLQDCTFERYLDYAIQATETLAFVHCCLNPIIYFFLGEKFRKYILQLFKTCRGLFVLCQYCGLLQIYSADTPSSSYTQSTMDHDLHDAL
Experimental: (§1) The aim of the present experiment was to analyze if if these peptides are functional using a Discoverx Assay, the Beta-Arrestin recruitment assay, to identify agonism or antagonism in the selected peptides.
(§2) Standard protocols used: • PathHunter® eXpress CCR4 CHO-K1 β-Arrestin GPCR Assay. 100 dp (1×96-well)
(§3) The experiment was carried using the manufacturer instructions.
We therefore used the assay in an antagonist format, using 10 nM CCL22.
We repeated this experiment lowering the concentration of CCL22 from 10 nM to 1 nM to show a full inhibition curve.

CCR4 [2] = molecular target: T1, CCR4; assay: PathHunter eXpress CCR4 CHO-K1 β-Arrestin GPCR Assay, agonist format; assay type: cell-based
Experimental: as §1, §2, §3
The concentration was increased to test for response at high concentration.

MT1-MMP hemopexin domain = molecular target: T2, MT1-MMP hemopexin domain (Homo sapiens, UniProt P50281); assay: MMP-14 FP competition binding between peptide families
T2 construct: Human MMP-14 PEX protein at 71.1 μM monomer
Experimental: FIG. 6 illustrates an analysis of MT-MMP binding ligands. A: MMP-14 FP direct binding in cell-based selections; 1 nM tracer, 60 min data. 17-98-Sar6-k(FI)-and-17-99-Sar6-k(FI)-bind with Kds of 354 nM and 501 nM respectively. B: competition binding with several combinations of peptides, both fluorescein-labelled or native, from soluble and cell based selections.
FIG. 7 illustrates the competition profile between peptide ligands isolated in this example.
• Human MMP-14 PEX protein at 71.1 μM monomer (previously 77.1 μM) (T-017-011), stored in fridge (4/7/14) • Peptides as described in Results section
Method: • Prepare assay buffer: 20 mM HEPES, 150 mM NaCl, 1 mM CaCl2), 0.1% Tween20 (pH 7.6). Buffer was filtered before use to remove precipitate. • Method according to Example 3 with tracer at 1 nM and MMP-14 PEX at concentrations detailed in the graphs • 60 min data analysed • Results are shown in FIG. 6.

antagonist for CCR4 (CCR4 [1]; 1 nM CCL22): antagonist
Raw Data (CCR4 [1]; 1 nM CCL22, 0.001 uM): 240299
Raw Data (CCR4 [1]; 1 nM CCL22, 0.003 uM): 222439
Raw Data (CCR4 [1]; 1 nM CCL22, 0.008 uM): 212749
Raw Data (CCR4 [1]; 1 nM CCL22, 0.023 uM): 212035
Raw Data (CCR4 [1]; 1 nM CCL22, 0.1 uM): 215827
Raw Data (CCR4 [1]; 1 nM CCL22, 0.2 uM): 201484
Raw Data (CCR4 [1]; 1 nM CCL22, 0.6 uM): 200525
Raw Data (CCR4 [1]; 1 nM CCL22, 1.9 uM): 198268
Raw Data (CCR4 [1]; 1 nM CCL22, 5.6 uM): 171795
Raw Data (CCR4 [1]; 1 nM CCL22, 16.7 uM): 116828
Raw Data (CCR4 [1]; 1 nM CCL22, 50 uM): 102610
Raw Data (CCR4 [1]; 10 nM CCL22, 0.001 uM): 163937
Raw Data (CCR4 [1]; 10 nM CCL22, 0.003 uM): 138339
Raw Data (CCR4 [1]; 10 nM CCL22, 0.008 uM): 156373
Raw Data (CCR4 [1]; 10 nM CCL22, 0.023 uM): 159753
Raw Data (CCR4 [1]; 10 nM CCL22, 0.1 uM): 168602
Raw Data (CCR4 [1]; 10 nM CCL22, 0.2 uM): 151985
Raw Data (CCR4 [1]; 10 nM CCL22, 0.6 uM): 158845
Raw Data (CCR4 [1]; 10 nM CCL22, 1.9 uM): 143688
Raw Data (CCR4 [1]; 10 nM CCL22, 5.6 uM): 150686
Raw Data (CCR4 [1]; 10 nM CCL22, 16.7 uM): 132736
Raw Data (CCR4 [1]; 10 nM CCL22, 50 uM): 138731
Raw Data (CCR4 [2]; 0.006 nM): 28548
Raw Data (CCR4 [2]; 0.02 nM): 25603
Raw Data (CCR4 [2]; 0.06 nM): 30232
Raw Data (CCR4 [2]; 0.17 nM): 28531
Raw Data (CCR4 [2]; 0.51 nM): 32968
Raw Data (CCR4 [2]; 1.5 nM): 30785
Raw Data (CCR4 [2]; 4.6 nM): 27510
Raw Data (CCR4 [2]; 13.9 nM): 24521
Raw Data (CCR4 [2]; 41.7 nM): 24892
Raw Data (CCR4 [2]; 125 nM): 21899
Raw Data (CCR4 [2]; 375 nM): 20214
Raw Data (CCR4 [2]; high concentration, 0.001 uM): 10817
Raw Data (CCR4 [2]; high concentration, 0.003 uM): 11788
Raw Data (CCR4 [2]; high concentration, 0.008 uM): 12385
Raw Data (CCR4 [2]; high concentration, 0.023 uM): 12607
Raw Data (CCR4 [2]; high concentration, 0.1 uM): 12143
Raw Data (CCR4 [2]; high concentration, 0.2 uM): 13151
Raw Data (CCR4 [2]; high concentration, 0.6 uM): 12839
Raw Data (CCR4 [2]; high concentration, 1.9 uM): 12725
Raw Data (CCR4 [2]; high concentration, 5.6 uM): 12720
Raw Data (CCR4 [2]; high concentration, 16.7 uM): 12239
Raw Data (CCR4 [2]; high concentration, 50 uM): 13314
Sequence: ACQLTCLTPARQPGCA [24-14-00-N001, bicyclic peptide ligand, TATA scaffold, from CCR4 cell-based selection]

Raw Data (CCR4 [1]; 1 nM CCL22, 0.001 uM): 244145
Raw Data (CCR4 [1]; 1 nM CCL22, 0.003 uM): 250550
Raw Data (CCR4 [1]; 1 nM CCL22, 0.008 uM): 249215
Raw Data (CCR4 [1]; 1 nM CCL22, 0.023 uM): 247868
Raw Data (CCR4 [1]; 1 nM CCL22, 0.1 uM): 246609
Raw Data (CCR4 [1]; 1 nM CCL22, 0.2 uM): 225038
Raw Data (CCR4 [1]; 1 nM CCL22, 0.6 uM): 213774
Raw Data (CCR4 [1]; 1 nM CCL22, 1.9 uM): 213016
Raw Data (CCR4 [1]; 1 nM CCL22, 5.6 uM): 186217
Raw Data (CCR4 [1]; 1 nM CCL22, 16.7 uM): 150731
Raw Data (CCR4 [1]; 1 nM CCL22, 50 uM): 107480
Raw Data (CCR4 [1]; 10 nM CCL22, 0.001 uM): 155442
Raw Data (CCR4 [1]; 10 nM CCL22, 0.003 uM): 169611
Raw Data (CCR4 [1]; 10 nM CCL22, 0.008 uM): 142089
Raw Data (CCR4 [1]; 10 nM CCL22, 0.023 uM): 158472
Raw Data (CCR4 [1]; 10 nM CCL22, 0.1 uM): 157585
Raw Data (CCR4 [1]; 10 nM CCL22, 0.2 uM): 159872
Raw Data (CCR4 [1]; 10 nM CCL22, 0.6 uM): 147765
Raw Data (CCR4 [1]; 10 nM CCL22, 1.9 uM): 143871
Raw Data (CCR4 [1]; 10 nM CCL22, 5.6 uM): 140714
Raw Data (CCR4 [1]; 10 nM CCL22, 16.7 uM): 167890
Raw Data (CCR4 [1]; 10 nM CCL22, 50 uM): 138655
Raw Data (CCR4 [2]; 0.006 nM): 23153
Raw Data (CCR4 [2]; 0.02 nM): 23757
Raw Data (CCR4 [2]; 0.06 nM): 25748
Raw Data (CCR4 [2]; 0.17 nM): 25062
Raw Data (CCR4 [2]; 0.51 nM): 25030
Raw Data (CCR4 [2]; 1.5 nM): 24736
Raw Data (CCR4 [2]; 4.6 nM): 22899
Raw Data (CCR4 [2]; 13.9 nM): 20756
Raw Data (CCR4 [2]; 41.7 nM): 20583
Raw Data (CCR4 [2]; 125 nM): 20012
Raw Data (CCR4 [2]; 375 nM): 20361
Raw Data (CCR4 [2]; high concentration, 0.001 uM): 10927
Raw Data (CCR4 [2]; high concentration, 0.003 uM): 11906
Raw Data (CCR4 [2]; high concentration, 0.008 uM): 12502
Raw Data (CCR4 [2]; high concentration, 0.023 uM): 12701
Raw Data (CCR4 [2]; high concentration, 0.1 uM): 13482
Raw Data (CCR4 [2]; high concentration, 0.2 uM): 13403
Raw Data (CCR4 [2]; high concentration, 0.6 uM): 14951
Raw Data (CCR4 [2]; high concentration, 1.9 uM): 14247
Raw Data (CCR4 [2]; high concentration, 5.6 uM): 14263
Raw Data (CCR4 [2]; high concentration, 16.7 uM): 13237
Raw Data (CCR4 [2]; high concentration, 50 uM): 13817
Sequence: ACQTLCNTAEDIRCA [24-16-00-N001, bicyclic peptide ligand, TBMB scaffold, from CCR4 cell-based selection]

Raw Data (CCR4 [1]; 1 nM CCL22, 0.001 uM): 272073
Raw Data (CCR4 [1]; 1 nM CCL22, 0.003 uM): 292052
Raw Data (CCR4 [1]; 1 nM CCL22, 0.008 uM): 301675
Raw Data (CCR4 [1]; 1 nM CCL22, 0.023 uM): 285103
Raw Data (CCR4 [1]; 1 nM CCL22, 0.1 uM): 296795
Raw Data (CCR4 [1]; 1 nM CCL22, 0.2 uM): 246983
Raw Data (CCR4 [1]; 1 nM CCL22, 0.6 uM): 252179
Raw Data (CCR4 [1]; 1 nM CCL22, 1.9 uM): 240952
Raw Data (CCR4 [1]; 1 nM CCL22, 5.6 uM): 197381
Raw Data (CCR4 [1]; 1 nM CCL22, 16.7 uM): 125610
Raw Data (CCR4 [1]; 1 nM CCL22, 50 uM): 114156
Raw Data (CCR4 [1]; 10 nM CCL22, 0.001 uM): 164018
Raw Data (CCR4 [1]; 10 nM CCL22, 0.003 uM): 174559
Raw Data (CCR4 [1]; 10 nM CCL22, 0.008 uM): 143078
Raw Data (CCR4 [1]; 10 nM CCL22, 0.023 uM): 164921
Raw Data (CCR4 [1]; 10 nM CCL22, 0.1 uM): 153182
Raw Data (CCR4 [1]; 10 nM CCL22, 0.2 uM): 151630
Raw Data (CCR4 [1]; 10 nM CCL22, 0.6 uM): 146982
Raw Data (CCR4 [1]; 10 nM CCL22, 1.9 uM): 132070
Raw Data (CCR4 [1]; 10 nM CCL22, 5.6 uM): 148721
Raw Data (CCR4 [1]; 10 nM CCL22, 16.7 uM): 140316
Raw Data (CCR4 [1]; 10 nM CCL22, 50 uM): 153988
Raw Data (CCR4 [2]; 0.006 nM): 27836
Raw Data (CCR4 [2]; 0.02 nM): 26107
Raw Data (CCR4 [2]; 0.06 nM): 29865
Raw Data (CCR4 [2]; 0.17 nM): 29746
Raw Data (CCR4 [2]; 0.51 nM): 27025
Raw Data (CCR4 [2]; 1.5 nM): 27917
Raw Data (CCR4 [2]; 4.6 nM): 25017
Raw Data (CCR4 [2]; 13.9 nM): 23972
Raw Data (CCR4 [2]; 41.7 nM): 23928
Raw Data (CCR4 [2]; 125 nM): 23999
Raw Data (CCR4 [2]; 375 nM): 22611
Raw Data (CCR4 [2]; high concentration, 0.001 uM): 11608
Raw Data (CCR4 [2]; high concentration, 0.003 uM): 11809
Raw Data (CCR4 [2]; high concentration, 0.008 uM): 13248
Raw Data (CCR4 [2]; high concentration, 0.023 uM): 13984
Raw Data (CCR4 [2]; high concentration, 0.1 uM): 14856
Raw Data (CCR4 [2]; high concentration, 0.2 uM): 15518
Raw Data (CCR4 [2]; high concentration, 0.6 uM): 15965
Raw Data (CCR4 [2]; high concentration, 1.9 uM): 17244
Raw Data (CCR4 [2]; high concentration, 5.6 uM): 17261
Raw Data (CCR4 [2]; high concentration, 16.7 uM): 16709
Raw Data (CCR4 [2]; high concentration, 50 uM): 16749
Sequence: ACRAVHSLRCLTTCA [24-17-00-N001, bicyclic peptide ligand, TATA scaffold, from CCR4 cell-based selection]

Sequence: CKMESWECLMLHPKC [Peptide 17-98]
binding site on MT1-MMP (MT1-MMP hemopexin domain): binds to the same site as the 17-88 family (the collagen binding site)
